Test [1] addresses SHH (chick, endogenous in cerebellar cortical explants) (chick) (UniProt Q91035). Description: cell-based or functional assay.
Test [2] deals with SHH (mouse, endogenous in purified granule neuron precursor aggregates) (mouse) (UniProt Q62226). Description: cell-based or functional assay.
SHH (mouse, endogenous in purified granule neuron precursor aggregates) (mouse), sequence (Q62226 25-198 limits assumed): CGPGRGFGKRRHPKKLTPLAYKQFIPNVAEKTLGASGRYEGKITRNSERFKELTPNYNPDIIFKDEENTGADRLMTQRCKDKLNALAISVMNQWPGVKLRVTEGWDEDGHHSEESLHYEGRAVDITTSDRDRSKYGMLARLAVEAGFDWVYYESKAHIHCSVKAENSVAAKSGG

SHH (chick, endogenous in cerebellar cortical explants) (chick), sequence (Q91035 27-200 limits assumed): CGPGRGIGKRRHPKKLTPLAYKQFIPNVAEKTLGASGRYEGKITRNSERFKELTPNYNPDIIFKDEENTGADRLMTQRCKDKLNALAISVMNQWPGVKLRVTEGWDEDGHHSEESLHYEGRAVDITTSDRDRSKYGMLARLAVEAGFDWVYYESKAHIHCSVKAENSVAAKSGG

In the case of “blocking anti-SHH monoclonal antibody 5E1”, the fold decrease in BrdU incorporation inside D10 chick cerebellar explants (96 h) in test [1] was in the range of 3 to 4 fold. This substance returned a fold decrease in proliferation of purified mouse granule neuron aggregates in test [2] of 3 to 4 fold.

For the origin of these results see patent US20030049246A1.
